Assay results published in patent US20180244785A1 (MERRIMACK PHARMACEUTICALS, published 2018).

Legend:
Assay in all cases: BLI Octet RED96, antibody on anti-hIgG Fc tip
[1] = target: T1, soluble FGFR1c receptor protein (human, UniProt P11362 141-376)
T1 sequence: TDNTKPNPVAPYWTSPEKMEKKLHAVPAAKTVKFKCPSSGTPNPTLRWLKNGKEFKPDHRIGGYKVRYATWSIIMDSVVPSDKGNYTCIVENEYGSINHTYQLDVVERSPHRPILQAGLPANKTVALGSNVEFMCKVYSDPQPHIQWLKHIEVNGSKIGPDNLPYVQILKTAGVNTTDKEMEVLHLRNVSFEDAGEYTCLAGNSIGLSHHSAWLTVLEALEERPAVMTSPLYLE
Procedure: (§1) Briefly, the Pall ForteBio Octet RED96 Bio-Layer Interferometry system was used to determine the specificity of anti-FGFR antibodies for FGFR1c, FGFR2c, FGFR3c, and FGFR4. The antibodies and soluble receptor proteins were prepared in PBS at a concentration of 300 nM. First, the candidate antibodies were immobilized on the surface of anti-human IgG Fc biosensor tips for 120 seconds. After immobilization, the biosensors were dipped in PBS solution for 60 seconds (baseline step) to assess assay drift, and determine loading level of antibodies. The baseline step was followed by an association step of 300 seconds wherein the binding interaction between the immobilized antibodies and soluble receptors was measured. Following the association step, the biosensors were dipped into PBS buffer for 600 seconds to measure the dissociation of the bound receptor proteins from the immobilized antibodies. Each binding response was measured and reported real time on a sensorgram trace. For data analysis, a simple 1:1 binding model was used which measures the rate of complex formation of one immobilized antibody and one soluble receptor protein.

[2] = target: T2, soluble FGFR3c receptor protein (human, UniProt P22607 141-372)
T2 sequence: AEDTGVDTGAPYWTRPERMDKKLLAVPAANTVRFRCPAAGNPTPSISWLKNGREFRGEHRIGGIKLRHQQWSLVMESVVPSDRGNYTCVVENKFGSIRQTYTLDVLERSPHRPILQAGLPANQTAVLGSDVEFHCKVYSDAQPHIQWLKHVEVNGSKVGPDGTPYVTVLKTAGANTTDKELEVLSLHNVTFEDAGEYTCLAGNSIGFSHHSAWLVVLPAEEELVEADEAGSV
Procedure: as §1

[3] = target: T3, soluble FGFR4 receptor protein (human, UniProt P22455 144-369)
T3 sequence: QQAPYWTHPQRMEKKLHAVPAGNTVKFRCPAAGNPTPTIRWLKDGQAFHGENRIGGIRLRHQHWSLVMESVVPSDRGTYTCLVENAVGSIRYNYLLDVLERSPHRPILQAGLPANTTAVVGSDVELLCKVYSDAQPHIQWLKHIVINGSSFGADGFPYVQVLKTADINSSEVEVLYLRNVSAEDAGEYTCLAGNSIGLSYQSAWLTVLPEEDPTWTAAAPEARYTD
Procedure: as §1

[4] = target: soluble FGFR2c receptor protein (human, UniProt P21802 148-377)
Procedure: as §1

Sequence of soluble FGFR2c receptor protein (P21802 148-377): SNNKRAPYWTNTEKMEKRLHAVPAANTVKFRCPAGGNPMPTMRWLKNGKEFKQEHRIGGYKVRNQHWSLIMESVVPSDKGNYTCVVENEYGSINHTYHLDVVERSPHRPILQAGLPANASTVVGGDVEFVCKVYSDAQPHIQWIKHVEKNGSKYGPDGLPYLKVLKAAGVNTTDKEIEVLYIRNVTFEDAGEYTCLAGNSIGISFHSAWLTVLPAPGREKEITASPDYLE

B1: Vk2 combined with the VH of Ab15 (antibody, V domains shown)
VH: EVQLLESGGGVVQPGRSLRLSCAASGFTFSSYAMHWVRQAPGKGLEWVAVISYDGSNKYYADSVKGRFTISRDNSKNTLSLQMNSLRVEDTAIYYCVRGAGRGYTYGPDGFDIWGQGTMVTVSS
VL: DIVMTQTPLSLSVTPGQPASISCTSSRSLLHSDGKTYVYWYLQKPGQPPQLLIYELSNRFSGVPDRFSGSGSRTDFTLKISRVEAEDVGVYYCMQYIEAPLTFGGGTKVEIK
notes: captured on anti-human IgG Fc tips
- Kd [1]: 5.74 nM
- koff [1]: 0.000313 s⁻¹
- kon [1]: 54500 M⁻¹ s⁻¹
- Kd [2]: 9.2 nM
- koff [2]: 0.0011 s⁻¹
- kon [2]: 120000 M⁻¹ s⁻¹
- Kd [3]: 7.06 nM
- koff [3]: 0.000888 s⁻¹
- kon [3]: 126000 M⁻¹ s⁻¹
- Kd [4]: 10.8 nM
- koff [4]: 0.00228 s⁻¹
- kon [4]: 211000 M⁻¹ s⁻¹

B2: Vk9 combined with the VH of Ab15 (antibody, V domains shown)
VH: EVQLLESGGGVVQPGRSLRLSCAASGFTFSSYAMHWVRQAPGKGLEWVAVISYDGSNKYYADSVKGRFTISRDNSKNTLSLQMNSLRVEDTAIYYCVRGAGRGYTYGPDGFDIWGQGTMVTVSS
VL: DIVMTQSPDSLAVSLGERATINCKSSQSLLHSDGKTYVYWYQQKPGQPPKLLIYELSNRFSGVPDRFSGSGSGTDFTLTISSLQAEDVAVYYCMQYIEAPLTFGGGTKVEIK
notes: as for B1
- Kd [1]: 2.39 nM
- koff [1]: 0.000137 s⁻¹
- kon [1]: 57200 M⁻¹ s⁻¹
- Kd [2]: 5.43 nM
- koff [2]: 0.000749 s⁻¹
- kon [2]: 138000 M⁻¹ s⁻¹
- Kd [3]: 4.89 nM
- koff [3]: 0.000692 s⁻¹
- kon [3]: 142000 M⁻¹ s⁻¹
- Kd [4]: 7.35 nM
- koff [4]: 0.00172 s⁻¹
- kon [4]: 234000 M⁻¹ s⁻¹

B3: Vh2 combined with the VL of Ab15 (antibody, V domains shown)
VH: EVQLVESGGGVVQPGRSLRLSCAASGFTFSSYAMHWVRQAPGKGLEWVAVISYDGSNKYYADSVKGRFTISRDNSKNTLYLQMNSLRAEDTAVYYCARGAGRGYTYGPDGFDIWGQGTMVTVSS
VL: DIVMTQTPLSLSVTPGQPASISCTSSRSLLHSDGKTYVYWYVQKSGQPPQLLIYELSNRFSGVPDRFSGSGSRTDFTLKISRVEAEDVGVYYCMQYIEAPLTFGGGTKVEIK
notes: as for B1
- Kd [1]: 5.41 nM
- koff [1]: 0.000269 s⁻¹
- kon [1]: 49700 M⁻¹ s⁻¹
- Kd [2]: 6.41 nM
- koff [2]: 0.000775 s⁻¹
- kon [2]: 121000 M⁻¹ s⁻¹
- Kd [3]: 2.84 nM
- koff [3]: 0.000492 s⁻¹
- kon [3]: 173000 M⁻¹ s⁻¹
- Kd [4]: 7.55 nM
- koff [4]: 0.00156 s⁻¹
- kon [4]: 207000 M⁻¹ s⁻¹

B4: Vk7 combined with the VH of Ab15 (antibody, V domains shown)
VH: EVQLLESGGGVVQPGRSLRLSCAASGFTFSSYAMHWVRQAPGKGLEWVAVISYDGSNKYYADSVKGRFTISRDNSKNTLSLQMNSLRVEDTAIYYCVRGAGRGYTYGPDGFDIWGQGTMVTVSS
VL: DIVMTQSPLSLPVTPGEPASISCKSSQSLLHSDGKTYLYWYLQKPGQPPQLLIYELSNRFSGVPDRFSGSGSGTDFTLKISRVEAEDVGVYYCMQYIEAPLTFGGGTKVEIK
notes: as for B1
- Kd [1]: 5.84 nM
- koff [1]: 0.000336 s⁻¹
- kon [1]: 57600 M⁻¹ s⁻¹
- Kd [2]: 8.7 nM
- koff [2]: 0.00104 s⁻¹
- kon [2]: 120000 M⁻¹ s⁻¹
- Kd [3]: 8.33 nM
- koff [3]: 0.00101 s⁻¹
- kon [3]: 121000 M⁻¹ s⁻¹
- Kd [4]: 13.1 nM
- koff [4]: 0.00274 s⁻¹
- kon [4]: 210000 M⁻¹ s⁻¹

B5: Vh1 combined with the VL of Ab15 (antibody, V domains shown)
VH: EVQLVESGGGVVQPGRSLRLSCAASGFTFSSYAMHWVRQAPGKGLEWVAVISYDGSNKYYADSVKGRFTISRDNSKNTLYLQMNSLRAEDTAIYYCVRGAGRGYTYGPDGFDIWGQGTMVTVSS
VL: DIVMTQTPLSLSVTPGQPASISCTSSRSLLHSDGKTYVYWYVQKSGQPPQLLIYELSNRFSGVPDRFSGSGSRTDFTLKISRVEAEDVGVYYCMQYIEAPLTFGGGTKVEIK
notes: as for B1
- Kd [1]: 7.49 nM
- koff [1]: 0.000356 s⁻¹
- kon [1]: 47500 M⁻¹ s⁻¹
- Kd [2]: 8.56 nM
- koff [2]: 0.001 s⁻¹
- kon [2]: 117000 M⁻¹ s⁻¹
- Kd [3]: 4.01 nM
- koff [3]: 0.000682 s⁻¹
- kon [3]: 170000 M⁻¹ s⁻¹
- Kd [4]: 10.9 nM
- koff [4]: 0.0024 s⁻¹
- kon [4]: 221000 M⁻¹ s⁻¹

B6: Vk11 combined with the VH of Ab15 (antibody, V domains shown)
VH: EVQLLESGGGVVQPGRSLRLSCAASGFTFSSYAMHWVRQAPGKGLEWVAVISYDGSNKYYADSVKGRFTISRDNSKNTLSLQMNSLRVEDTAIYYCVRGAGRGYTYGPDGFDIWGQGTMVTVSS
VL: DIVMTQSPLSLPVTPGEPASISCTSSRSLLHSDGKTYVYWYLQKPGQSPQVLIYELSNRFSGVPDRFSGSGSGTDFTLKISRVEAEDVGVYYCMQYIEAPLTFGGGTKVEIK
notes: as for B1
- Kd [1]: 7.62 nM
- koff [1]: 0.000327 s⁻¹
- kon [1]: 42900 M⁻¹ s⁻¹
- Kd [2]: 11.1 nM
- koff [2]: 0.0013 s⁻¹
- kon [2]: 117000 M⁻¹ s⁻¹
- Kd [3]: 8.47 nM
- koff [3]: 0.00106 s⁻¹
- kon [3]: 125000 M⁻¹ s⁻¹
- Kd [4]: 10.9 nM
- koff [4]: 0.00231 s⁻¹
- kon [4]: 212000 M⁻¹ s⁻¹

B7: Vk1 combined with the VH of Ab15 (antibody, V domains shown)
VH: EVQLLESGGGVVQPGRSLRLSCAASGFTFSSYAMHWVRQAPGKGLEWVAVISYDGSNKYYADSVKGRFTISRDNSKNTLSLQMNSLRVEDTAIYYCVRGAGRGYTYGPDGFDIWGQGTMVTVSS
VL: DIVMTQTPLSLSVTPGQPASISCTSSRSLLHSDGKTYLYWYLQKPGQPPQLLIYELSNRFSGVPDRFSGSGSRTDFTLKISRVEAEDVGVYYCMQYIEAPLTFGGGTKVEIK
notes: as for B1
- Kd [1]: 4.7 nM
- koff [1]: 0.000243 s⁻¹
- kon [1]: 51700 M⁻¹ s⁻¹
- Kd [2]: 12.3 nM
- koff [2]: 0.00138 s⁻¹
- kon [2]: 113000 M⁻¹ s⁻¹
- Kd [3]: 8.75 nM
- koff [3]: 0.00105 s⁻¹
- kon [3]: 120000 M⁻¹ s⁻¹
- Kd [4]: 12.7 nM
- koff [4]: 0.00245 s⁻¹
- kon [4]: 193000 M⁻¹ s⁻¹

B8: Vk6 combined with the VH of Ab15 (antibody, V domains shown)
VH: EVQLLESGGGVVQPGRSLRLSCAASGFTFSSYAMHWVRQAPGKGLEWVAVISYDGSNKYYADSVKGRFTISRDNSKNTLSLQMNSLRVEDTAIYYCVRGAGRGYTYGPDGFDIWGQGTMVTVSS
VL: DIVMTQTPLSLSVTPGQPASISCKSSQSLLHSDGKTYLYWYLQKPGQPPQLLIYELSNRFSGVPDRFSGSGSGTDFTLKISRVEAEDVGVYYCMQYIEAPLTFGGGTKVEIK
notes: as for B1
- Kd [1]: 6.45 nM
- koff [1]: 0.000344 s⁻¹
- kon [1]: 53400 M⁻¹ s⁻¹
- Kd [2]: 12.9 nM
- koff [2]: 0.00157 s⁻¹
- kon [2]: 121000 M⁻¹ s⁻¹
- Kd [3]: 9.31 nM
- koff [3]: 0.00112 s⁻¹
- kon [3]: 120000 M⁻¹ s⁻¹
- Kd [4]: 14.3 nM
- koff [4]: 0.00313 s⁻¹
- kon [4]: 219000 M⁻¹ s⁻¹

B9: Vk12 combined with the VH of Ab15 (antibody, V domains shown)
VH: EVQLLESGGGVVQPGRSLRLSCAASGFTFSSYAMHWVRQAPGKGLEWVAVISYDGSNKYYADSVKGRFTISRDNSKNTLSLQMNSLRVEDTAIYYCVRGAGRGYTYGPDGFDIWGQGTMVTVSS
VL: DIVMTQSPLSLPVTPGEPASISCTSSRSLLHSDGKTYVYWYLQKPGQSPQLLIYELSNRFSGVPDRFSGSGSGTDFTLKISRVEAEDVGVYYCMQYIEAPLTFGGGTKVEIK
notes: as for B1
- Kd [1]: 6.51 nM
- koff [1]: 0.000345 s⁻¹
- kon [1]: 53000 M⁻¹ s⁻¹
- Kd [2]: 6.38 nM
- koff [2]: 0.000806 s⁻¹
- kon [2]: 126000 M⁻¹ s⁻¹
- Kd [3]: 7.01 nM
- koff [3]: 0.000925 s⁻¹
- kon [3]: 132000 M⁻¹ s⁻¹
- Kd [4]: 9.76 nM
- koff [4]: 0.0021 s⁻¹
- kon [4]: 215000 M⁻¹ s⁻¹

B10: Vk5 combined with the VH of Ab15 (antibody, V domains shown)
VH: EVQLLESGGGVVQPGRSLRLSCAASGFTFSSYAMHWVRQAPGKGLEWVAVISYDGSNKYYADSVKGRFTISRDNSKNTLSLQMNSLRVEDTAIYYCVRGAGRGYTYGPDGFDIWGQGTMVTVSS
VL: DIVMTQTPLSLSVTPGQPASISCRSSRSLLHSDGKTYVYWYLQKPGQPPQLLIYELSNRFSGVPDRFSGSGSGTDFTLKISRVEAEDVGVYYCMQYIEAPLTFGGGTKVEIK
notes: as for B1
- Kd [1]: 3.98 nM
- koff [1]: 0.000215 s⁻¹
- kon [1]: 54100 M⁻¹ s⁻¹
- Kd [2]: 7 nM
- koff [2]: 0.000891 s⁻¹
- kon [2]: 127000 M⁻¹ s⁻¹
- Kd [3]: 6.05 nM
- koff [3]: 0.000752 s⁻¹
- kon [3]: 124000 M⁻¹ s⁻¹
- Kd [4]: 8.88 nM
- koff [4]: 0.00176 s⁻¹
- kon [4]: 198000 M⁻¹ s⁻¹

B11: Vk3 combined with the VH of Ab15 (antibody, V domains shown)
VH: EVQLLESGGGVVQPGRSLRLSCAASGFTFSSYAMHWVRQAPGKGLEWVAVISYDGSNKYYADSVKGRFTISRDNSKNTLSLQMNSLRVEDTAIYYCVRGAGRGYTYGPDGFDIWGQGTMVTVSS
VL: DIVMTQTPLSLSVTPGQPASISCTSSRSLLHSDGKTYVYWYLQKSGQPPQLLIYELSNRFSGVPDRFSGSGSRTDFTLKISRVEAEDVGVYYCMQYIEAPLTFGGGTKVEIK
notes: as for B1
- Kd [1]: 4.79 nM
- koff [1]: 0.000262 s⁻¹
- kon [1]: 54600 M⁻¹ s⁻¹
- Kd [2]: 7.97 nM
- koff [2]: 0.00101 s⁻¹
- kon [2]: 126000 M⁻¹ s⁻¹
- Kd [3]: 6.79 nM
- koff [3]: 0.000855 s⁻¹
- kon [3]: 126000 M⁻¹ s⁻¹
- Kd [4]: 10.3 nM
- koff [4]: 0.0022 s⁻¹
- kon [4]: 214000 M⁻¹ s⁻¹
